*1 amine or outer side, *2 acyl side, *3 side chain or, on linkers, in order; H or OH if unused. Where no end group is shown, it is not given here. Side-chain parts run from the residue outwards. [ ]: non-standard residue; d: D form. The star is where a group is joined. γGlu = O=C(O)[C@H](CCC(=O)[*:2])N[*:1]; Palmitoyl = CCCCCCCCCCCCCCCC(=O)*; Propionyl = CCC(=O)*; βAla = NCCC(=O)O
Assays:
[1] = target: human glucagon receptor (human, UniProt P47871 26-477); assay: cell-based or functional assay
human glucagon receptor, sequence (P47871 26-477): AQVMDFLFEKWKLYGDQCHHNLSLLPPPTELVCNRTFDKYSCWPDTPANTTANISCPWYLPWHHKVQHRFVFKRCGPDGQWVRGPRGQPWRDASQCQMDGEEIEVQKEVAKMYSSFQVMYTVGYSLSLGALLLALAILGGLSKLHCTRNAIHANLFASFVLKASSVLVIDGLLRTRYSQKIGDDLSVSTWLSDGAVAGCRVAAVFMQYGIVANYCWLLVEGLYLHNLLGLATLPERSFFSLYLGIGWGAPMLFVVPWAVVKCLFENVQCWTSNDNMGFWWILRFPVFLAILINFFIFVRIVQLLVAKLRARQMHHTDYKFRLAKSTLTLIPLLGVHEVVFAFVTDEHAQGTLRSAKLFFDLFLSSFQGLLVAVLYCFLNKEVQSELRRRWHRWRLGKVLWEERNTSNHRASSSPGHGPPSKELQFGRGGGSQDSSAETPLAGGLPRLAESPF

[2] = target: human GLP-1 receptor (human, UniProt P43220 24-463); assay: cell-based or functional assay

B1: SEQ ID NO: (100) (peptide)
peptide: H[dS]QGTFTSDLSKQMESRRAQDFIEWLKSGGPSSGAPPPK([βAla-βAla-Palmitoyl])-NH2
modifications: N-terminus assumed
SMILES: CCCCCCCCCCCCCCCC(=O)NCCC(=O)NCCC(=O)NCCCC[C@H](NC(=O)[C@@H]1CCCN1C(=O)[C@@H]1CCCN1C(=O)[C@@H]1CCCN1C(=O)[C@H](C)NC(=O)CNC(=O)[C@H](CO)NC(=O)[C@H](CO)NC(=O)[C@@H]1CCCN1C(=O)CNC(=O)CNC(=O)[C@H](CO)NC(=O)[C@H](CCCCN)NC(=O)[C@H](CC(C)C)NC(=O)[C@H](Cc1c[nH]c2ccccc12)NC(=O)[C@H](CCC(=O)O)NC(=O)[C@@H](NC(=O)[C@H](Cc1ccccc1)NC(=O)[C@H](CC(=O)O)NC(=O)[C@H](CCC(N)=O)NC(=O)[C@H](C)NC(=O)[C@H](CCCNC(=N)N)NC(=O)[C@H](CCCNC(=N)N)NC(=O)[C@H](CO)NC(=O)[C@H](CCC(=O)O)NC(=O)[C@H](CCSC)NC(=O)[C@H](CCC(N)=O)NC(=O)[C@H](CCCCN)NC(=O)[C@H](CO)NC(=O)[C@H](CC(C)C)NC(=O)[C@H](CC(=O)O)NC(=O)[C@H](CO)NC(=O)[C@@H](NC(=O)[C@H](Cc1ccccc1)NC(=O)[C@@H](NC(=O)CNC(=O)[C@H](CCC(N)=O)NC(=O)[C@@H](CO)NC(=O)[C@@H](N)Cc1c[nH]cn1)[C@@H](C)O)[C@@H](C)O)[C@@H](C)CC)C(N)=O
EC50 hGlucagonR (cAMP formation) [1]: 0.0166 nM
EC50 hGLP-1R (cAMP formation) [2]: 0.0096 nM

HSQGTFTSDLSKQMEERRAKDFIEWLKNGGPSSGAPPPS-NH2 [SEQ ID NO: (16)]
EC50 hGlucagonR (cAMP formation) [1]: 2.13 nM
EC50 hGLP-1R (cAMP formation) [2]: 0.0076 nM

B2: SEQ ID NO: (91) (peptide)
peptide: H[dS]QGTFTSDLSKQMESRRARLFIEWLKSGGPSSGAPPPSK([γGlu-Palmitoyl])-NH2
modifications: N-terminus assumed
SMILES: CCCCCCCCCCCCCCCC(=O)N[C@@H](CCC(=O)NCCCC[C@H](NC(=O)[C@H](CO)NC(=O)[C@@H]1CCCN1C(=O)[C@@H]1CCCN1C(=O)[C@@H]1CCCN1C(=O)[C@H](C)NC(=O)CNC(=O)[C@H](CO)NC(=O)[C@H](CO)NC(=O)[C@@H]1CCCN1C(=O)CNC(=O)CNC(=O)[C@H](CO)NC(=O)[C@H](CCCCN)NC(=O)[C@H](CC(C)C)NC(=O)[C@H](Cc1c[nH]c2ccccc12)NC(=O)[C@H](CCC(=O)O)NC(=O)[C@@H](NC(=O)[C@H](Cc1ccccc1)NC(=O)[C@H](CC(C)C)NC(=O)[C@H](CCCNC(=N)N)NC(=O)[C@H](C)NC(=O)[C@H](CCCNC(=N)N)NC(=O)[C@H](CCCNC(=N)N)NC(=O)[C@H](CO)NC(=O)[C@H](CCC(=O)O)NC(=O)[C@H](CCSC)NC(=O)[C@H](CCC(N)=O)NC(=O)[C@H](CCCCN)NC(=O)[C@H](CO)NC(=O)[C@H](CC(C)C)NC(=O)[C@H](CC(=O)O)NC(=O)[C@H](CO)NC(=O)[C@@H](NC(=O)[C@H](Cc1ccccc1)NC(=O)[C@@H](NC(=O)CNC(=O)[C@H](CCC(N)=O)NC(=O)[C@@H](CO)NC(=O)[C@@H](N)Cc1c[nH]cn1)[C@@H](C)O)[C@@H](C)O)[C@@H](C)CC)C(N)=O)C(=O)O
EC50 hGlucagonR (cAMP formation) [1]: 0.121 nM
EC50 hGLP-1R (cAMP formation) [2]: 0.0067 nM

B3: SEQ ID NO: (92) (peptide)
peptide: H[dS]QGTFTSDLSKQMESRRAQDFIEWLKEGGPSSGRPPPSK([γGlu-Palmitoyl])-NH2
modifications: N-terminus assumed
SMILES: CCCCCCCCCCCCCCCC(=O)N[C@@H](CCC(=O)NCCCC[C@H](NC(=O)[C@H](CO)NC(=O)[C@@H]1CCCN1C(=O)[C@@H]1CCCN1C(=O)[C@@H]1CCCN1C(=O)[C@H](CCCNC(=N)N)NC(=O)CNC(=O)[C@H](CO)NC(=O)[C@H](CO)NC(=O)[C@@H]1CCCN1C(=O)CNC(=O)CNC(=O)[C@H](CCC(=O)O)NC(=O)[C@H](CCCCN)NC(=O)[C@H](CC(C)C)NC(=O)[C@H](Cc1c[nH]c2ccccc12)NC(=O)[C@H](CCC(=O)O)NC(=O)[C@@H](NC(=O)[C@H](Cc1ccccc1)NC(=O)[C@H](CC(=O)O)NC(=O)[C@H](CCC(N)=O)NC(=O)[C@H](C)NC(=O)[C@H](CCCNC(=N)N)NC(=O)[C@H](CCCNC(=N)N)NC(=O)[C@H](CO)NC(=O)[C@H](CCC(=O)O)NC(=O)[C@H](CCSC)NC(=O)[C@H](CCC(N)=O)NC(=O)[C@H](CCCCN)NC(=O)[C@H](CO)NC(=O)[C@H](CC(C)C)NC(=O)[C@H](CC(=O)O)NC(=O)[C@H](CO)NC(=O)[C@@H](NC(=O)[C@H](Cc1ccccc1)NC(=O)[C@@H](NC(=O)CNC(=O)[C@H](CCC(N)=O)NC(=O)[C@@H](CO)NC(=O)[C@@H](N)Cc1c[nH]cn1)[C@@H](C)O)[C@@H](C)O)[C@@H](C)CC)C(N)=O)C(=O)O
EC50 hGlucagonR (cAMP formation) [1]: 0.038 nM
EC50 hGLP-1R (cAMP formation) [2]: 0.006 nM

H[dS]QGTFTSDLSKQMESRRAQDFIEWLKSGGPSSGAPPPSK([γGlu-γGlu-Palmitoyl])-NH2 [SEQ ID NO: (97)]
EC50 hGlucagonR (cAMP formation) [1]: 0.0363 nM
EC50 hGLP-1R (cAMP formation) [2]: 0.0047 nM

B4: SEQ ID NO: (98) (peptide)
peptide: H[dS]QGTFTSDLSKQMESRRAQDFIEWLKSGGPSSGAPPPSK([βAla-βAla-Palmitoyl])-NH2
modifications: N-terminus assumed
SMILES: CCCCCCCCCCCCCCCC(=O)NCCC(=O)NCCC(=O)NCCCC[C@H](NC(=O)[C@H](CO)NC(=O)[C@@H]1CCCN1C(=O)[C@@H]1CCCN1C(=O)[C@@H]1CCCN1C(=O)[C@H](C)NC(=O)CNC(=O)[C@H](CO)NC(=O)[C@H](CO)NC(=O)[C@@H]1CCCN1C(=O)CNC(=O)CNC(=O)[C@H](CO)NC(=O)[C@H](CCCCN)NC(=O)[C@H](CC(C)C)NC(=O)[C@H](Cc1c[nH]c2ccccc12)NC(=O)[C@H](CCC(=O)O)NC(=O)[C@@H](NC(=O)[C@H](Cc1ccccc1)NC(=O)[C@H](CC(=O)O)NC(=O)[C@H](CCC(N)=O)NC(=O)[C@H](C)NC(=O)[C@H](CCCNC(=N)N)NC(=O)[C@H](CCCNC(=N)N)NC(=O)[C@H](CO)NC(=O)[C@H](CCC(=O)O)NC(=O)[C@H](CCSC)NC(=O)[C@H](CCC(N)=O)NC(=O)[C@H](CCCCN)NC(=O)[C@H](CO)NC(=O)[C@H](CC(C)C)NC(=O)[C@H](CC(=O)O)NC(=O)[C@H](CO)NC(=O)[C@@H](NC(=O)[C@H](Cc1ccccc1)NC(=O)[C@@H](NC(=O)CNC(=O)[C@H](CCC(N)=O)NC(=O)[C@@H](CO)NC(=O)[C@@H](N)Cc1c[nH]cn1)[C@@H](C)O)[C@@H](C)O)[C@@H](C)CC)C(N)=O
EC50 hGlucagonR (cAMP formation) [1]: 0.0146 nM
EC50 hGLP-1R (cAMP formation) [2]: 0.0051 nM

B5: SEQ ID NO: (103) (peptide)
peptide: H[dS]QGTFTSDLSKQMESRAAQDFIEWLKSGGPSSGAPPPSK([γGlu-Palmitoyl])-NH2
modifications: N-terminus assumed
SMILES: CCCCCCCCCCCCCCCC(=O)N[C@@H](CCC(=O)NCCCC[C@H](NC(=O)[C@H](CO)NC(=O)[C@@H]1CCCN1C(=O)[C@@H]1CCCN1C(=O)[C@@H]1CCCN1C(=O)[C@H](C)NC(=O)CNC(=O)[C@H](CO)NC(=O)[C@H](CO)NC(=O)[C@@H]1CCCN1C(=O)CNC(=O)CNC(=O)[C@H](CO)NC(=O)[C@H](CCCCN)NC(=O)[C@H](CC(C)C)NC(=O)[C@H](Cc1c[nH]c2ccccc12)NC(=O)[C@H](CCC(=O)O)NC(=O)[C@@H](NC(=O)[C@H](Cc1ccccc1)NC(=O)[C@H](CC(=O)O)NC(=O)[C@H](CCC(N)=O)NC(=O)[C@H](C)NC(=O)[C@H](C)NC(=O)[C@H](CCCNC(=N)N)NC(=O)[C@H](CO)NC(=O)[C@H](CCC(=O)O)NC(=O)[C@H](CCSC)NC(=O)[C@H](CCC(N)=O)NC(=O)[C@H](CCCCN)NC(=O)[C@H](CO)NC(=O)[C@H](CC(C)C)NC(=O)[C@H](CC(=O)O)NC(=O)[C@H](CO)NC(=O)[C@@H](NC(=O)[C@H](Cc1ccccc1)NC(=O)[C@@H](NC(=O)CNC(=O)[C@H](CCC(N)=O)NC(=O)[C@@H](CO)NC(=O)[C@@H](N)Cc1c[nH]cn1)[C@@H](C)O)[C@@H](C)O)[C@@H](C)CC)C(N)=O)C(=O)O
EC50 hGlucagonR (cAMP formation) [1]: 0.0459 nM
EC50 hGLP-1R (cAMP formation) [2]: 0.0037 nM

H[dS]QGTFTSDLSKQMESRRAQDFIEWLKSGGPSSGAPPPSK(Ac)-NH2 [SEQ ID NO: (105)]
EC50 hGlucagonR (cAMP formation) [1]: 0.614 nM
EC50 hGLP-1R (cAMP formation) [2]: 0.142 nM

H[dS]QGTFTSDLSKQMESRRAQDFIEWLKSGGPSSGAPPPSK(6‑((4,4-diphenyl-cyclohexyloxy)-hydroxy-phosphoryloxy)‑hexanoyl)-NH2 [SEQ ID NO: (107)]
EC50 hGlucagonR (cAMP formation) [1]: 5.16 nM
EC50 hGLP-1R (cAMP formation) [2]: 0.009 nM

H[dS]QGTFTSDLSKQMESRRAQDFIEWLKSGGPSSGAPPPSK([γGlu-aleuritolyl])-NH2 [SEQ ID NO: (93)]
EC50 hGlucagonR (cAMP formation) [1]: 1.87 nM
EC50 hGLP-1R (cAMP formation) [2]: 0.188 nM

H[dS]QGTFTSDLSKQMESRRAQDFIEWLKSGGPSSGAPPPSK([γGlu-Propionyl])-NH2 [SEQ ID NO: (106)]
EC50 hGlucagonR (cAMP formation) [1]: 1.32 nM
EC50 hGLP-1R (cAMP formation) [2]: 0.315 nM

B6: SEQ ID NO: (104) (peptide)
peptide: H[dS]QGTFTSDLSKQMESRRAQDFIEWLKEGGPSSGKPPPSK([γGlu-Palmitoyl])-NH2
modifications: N-terminus assumed
SMILES: CCCCCCCCCCCCCCCC(=O)N[C@@H](CCC(=O)NCCCC[C@H](NC(=O)[C@H](CO)NC(=O)[C@@H]1CCCN1C(=O)[C@@H]1CCCN1C(=O)[C@@H]1CCCN1C(=O)[C@H](CCCCN)NC(=O)CNC(=O)[C@H](CO)NC(=O)[C@H](CO)NC(=O)[C@@H]1CCCN1C(=O)CNC(=O)CNC(=O)[C@H](CCC(=O)O)NC(=O)[C@H](CCCCN)NC(=O)[C@H](CC(C)C)NC(=O)[C@H](Cc1c[nH]c2ccccc12)NC(=O)[C@H](CCC(=O)O)NC(=O)[C@@H](NC(=O)[C@H](Cc1ccccc1)NC(=O)[C@H](CC(=O)O)NC(=O)[C@H](CCC(N)=O)NC(=O)[C@H](C)NC(=O)[C@H](CCCNC(=N)N)NC(=O)[C@H](CCCNC(=N)N)NC(=O)[C@H](CO)NC(=O)[C@H](CCC(=O)O)NC(=O)[C@H](CCSC)NC(=O)[C@H](CCC(N)=O)NC(=O)[C@H](CCCCN)NC(=O)[C@H](CO)NC(=O)[C@H](CC(C)C)NC(=O)[C@H](CC(=O)O)NC(=O)[C@H](CO)NC(=O)[C@@H](NC(=O)[C@H](Cc1ccccc1)NC(=O)[C@@H](NC(=O)CNC(=O)[C@H](CCC(N)=O)NC(=O)[C@@H](CO)NC(=O)[C@@H](N)Cc1c[nH]cn1)[C@@H](C)O)[C@@H](C)O)[C@@H](C)CC)C(N)=O)C(=O)O
EC50 hGlucagonR (cAMP formation) [1]: 0.0287 nM
EC50 hGLP-1R (cAMP formation) [2]: 0.0073 nM

Source: patent US20130336893A1 (Sanofi, published 2013)
